Kd data for one substance are collected here from paper PMC6711944.

Usually pKd stands for −log10 of the Kd, conventionally taken in molar units.

In this test the target is NS1B-NTR (1-103), N-terminal region of the influenza B virus NS1 protein (influenza B virus) (UniProt P03502). Kind of test: ITC; about 0.5 mM ISG15 injected into 250 ul of 0.05 mM NS1B-NTR in the cell, 20 aliquots of 2 ul; 25 °C; 10 mM HEPES-sodium, 500 mM NaCl, pH 7.2; MicroCal iTC200; 'one set of sites' fitting model. For orientation: Isothermal titration calorimetry measures the heat released or taken up as one component is titrated into another.

pKd: −log10 of the molar value.

Substance cISG15-K82A-N83A (natural protein) gave a pKd of 4.92.
